Data as given in patent US20170073659.

Biological target: GFP-KRS

B1: caspase-8 (protein)
chain: MDFSRNLYDIGEQLDSEDLASLKFLSLDYIPQRKQEPIKDALMLFQRLQEKRMLEESNLSFLKELLFRINRLDLLITYLNTRKEEMERELQTPGRAQISAYRVMLYQISEEVSRSELRSFKFLLQEEISKCKLDDDMNLLDIFIEMEKRVILGEGKLDILKRVCAQINKSLLKIINDYEEFSKERSSSLEGSPDEFSNGEELCGVMTISDSPREQDSESQTLDKVYQMKSKPRGYCLIINNHNFAKAREKVPKLHSIRDRNGTHLDAGALTTTFEELHFEIKPHDDCTVEQIYEILKIYQLMDHSNMDCFICCILSHGDKGIIYGTDGQEAPIYELTSQFTGLKCPSLAGKPKVFFIQACQGDNYQKGIPVETDSEEQPYLEMDLSSPQTRYIPDEADFLLGMATVNNCVSYRNPAEGTWYIQSLCQSLRERCPRGDDILTILTEVNYEVSNKDDKKNMGKQMPQPTFTLRKKLVFPSD
amount of KRS cleaved after caspase-8 overexpression (western blot with anti-GFP antibody): the amount of KRS cleaved was increased with the increasing amount of caspase-8
